The record followed here is paper PMC5737688.

Test [1] concerns the target GAN·GINS complex of Thermococcus kodakarensis, formed on the SPR chip from the purified recombinant proteins (Thermococcus kodakarensis). The experiment in a line: SPR. (In general: In SPR one partner is held on a chip, and binding of the other changes the refractive index at the surface.)
The target is the same in test [2]. The experiment in a line: SPR. The source holds these as a separate data set.

Where two headings read alike, the source gives them in different places.

As to “MCM3 (minichromosome maintenance helicase) of Thermococcus kodakarensis, homohexamer, recombinant (enzyme)”, the Kd in test [1] is 180 nM; in test [2] it was 190 nM.

For orientation: Kd means the equilibrium constant for the complex coming apart.
